Experimental data published in US10428140B2, “Anti-EphA4 antibody” (EISAI R&D MANAGEMENT CO., LTD., priority 2015, dated 2019).
Substitutions are numbered along the chain they refer to.

T1: human EphA3 (Homo sapiens, UniProt P29320)
T1 construct: a protein of the extracellular region of each human Eph receptor fused with the SEAP protein and the His tag; made in house; host or cells: Expi293F cells (culture supernatant)
T1 sequence (P29320 21-541 limits assumed): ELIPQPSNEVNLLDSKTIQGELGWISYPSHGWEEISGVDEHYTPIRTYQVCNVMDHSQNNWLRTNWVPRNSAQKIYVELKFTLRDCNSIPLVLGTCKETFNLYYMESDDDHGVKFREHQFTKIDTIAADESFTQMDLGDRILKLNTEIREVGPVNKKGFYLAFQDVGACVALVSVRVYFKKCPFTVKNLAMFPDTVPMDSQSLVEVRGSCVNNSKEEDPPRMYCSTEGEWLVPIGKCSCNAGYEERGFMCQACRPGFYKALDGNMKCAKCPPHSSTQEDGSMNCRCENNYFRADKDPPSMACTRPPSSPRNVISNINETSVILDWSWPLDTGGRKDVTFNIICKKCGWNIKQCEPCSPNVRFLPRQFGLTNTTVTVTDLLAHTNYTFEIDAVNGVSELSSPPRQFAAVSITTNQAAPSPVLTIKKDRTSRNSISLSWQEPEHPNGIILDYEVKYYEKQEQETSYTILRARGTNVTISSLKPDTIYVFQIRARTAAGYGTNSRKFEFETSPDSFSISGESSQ

T2: human EphA6 (Homo sapiens, UniProt Q9UF33)
T2 construct: a protein of the extracellular region of each human Eph receptor fused with the SEAP protein and the His tag; made in house; host or cells: Expi293F cells (culture supernatant)
T2 sequence (Q9UF33 23-550 limits assumed): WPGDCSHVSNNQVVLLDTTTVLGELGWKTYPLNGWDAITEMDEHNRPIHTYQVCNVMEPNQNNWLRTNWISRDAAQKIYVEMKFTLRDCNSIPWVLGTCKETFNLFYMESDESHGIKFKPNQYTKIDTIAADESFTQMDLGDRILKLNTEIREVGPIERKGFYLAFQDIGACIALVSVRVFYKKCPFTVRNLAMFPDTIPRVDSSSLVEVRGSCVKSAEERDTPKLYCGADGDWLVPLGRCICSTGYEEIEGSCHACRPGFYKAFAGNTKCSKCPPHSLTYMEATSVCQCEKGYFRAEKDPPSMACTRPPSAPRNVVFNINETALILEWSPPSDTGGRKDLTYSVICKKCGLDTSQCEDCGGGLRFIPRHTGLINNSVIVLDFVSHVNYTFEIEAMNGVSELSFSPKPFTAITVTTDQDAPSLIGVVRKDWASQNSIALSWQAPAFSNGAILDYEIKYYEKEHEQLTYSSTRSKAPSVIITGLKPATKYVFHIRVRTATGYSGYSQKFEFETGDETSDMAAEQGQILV

T3: human EphA7 (Homo sapiens, UniProt Q15375)
T3 construct: a protein of the extracellular region of each human Eph receptor fused with the SEAP protein and the His tag; made in house; host or cells: Expi293F cells (culture supernatant)
T3 sequence (Q15375 28-555 limits assumed): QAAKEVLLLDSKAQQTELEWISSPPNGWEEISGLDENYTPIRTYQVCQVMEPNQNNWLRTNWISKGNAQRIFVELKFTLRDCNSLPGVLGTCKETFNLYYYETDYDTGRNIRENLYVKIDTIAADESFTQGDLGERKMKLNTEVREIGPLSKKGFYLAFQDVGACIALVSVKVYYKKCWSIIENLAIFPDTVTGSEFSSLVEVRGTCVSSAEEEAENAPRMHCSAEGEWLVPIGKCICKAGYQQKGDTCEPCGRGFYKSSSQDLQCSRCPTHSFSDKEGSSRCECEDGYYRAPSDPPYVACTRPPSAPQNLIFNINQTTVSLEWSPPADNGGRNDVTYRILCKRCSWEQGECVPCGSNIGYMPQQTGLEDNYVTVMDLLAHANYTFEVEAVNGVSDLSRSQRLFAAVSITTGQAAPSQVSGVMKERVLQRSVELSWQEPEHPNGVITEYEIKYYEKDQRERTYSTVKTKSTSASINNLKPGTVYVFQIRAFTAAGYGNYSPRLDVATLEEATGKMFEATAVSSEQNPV

B1: 69 (antibody, V domains shown)
VH: QIQLVQSGSELKKPGASVKVSCKASGYTFTDYSMHWVRQAPGQGLKWMGWINTETGEPTYADDFKGRFVFSLDTSVSTAYLQISSLKAEDTAVYYCARIPLYYYGSRYWYFDVWGQGTTVTVSS
VL: DIQMTQSPSSLSASVGDRVTITCRASENIYRNLAWYQQKPGKAPKLLVYAATNLADGVPSRFSGSGSGTDYTLTISSLQPEDFATYYCQHFWGTPWTFGQGTKVEIK
modifications: synthetic humanized antibody heavy chain variable region sequence; synthetic humanized antibody light chain variable region sequence
B2: 88 (antibody, V domains shown)
VL: B1 VL with K45Q, V48L
VH: B1 VH with I2V, D62Q, D63G, K65T
modifications: constant regions without entry; synthetic humanized antibody light chain variable region sequence; synthetic humanized antibody heavy chain variable region sequence
B3: 90 (antibody, V domains shown)
VL: B1 VL with K45Q, V48L
VH: B1 VH with I2V, K46E
modifications: constant regions without entry; synthetic humanized antibody light chain variable region sequence; synthetic humanized antibody heavy chain variable region sequence
B4: 87 (antibody, V domains shown)
VL: B1 VL with K45Q, V48L
VH: B1 VH with I2V, K46E, D62Q, D63G, K65T
modifications: constant regions without entry; synthetic humanized antibody light chain variable region sequence; synthetic humanized antibody heavy chain variable region sequence
B5: 82 (antibody, V domains shown)
VL: B1 VL with V48L, P80S
VH: B1 VH with I2V, D62Q, D63G, K65T
modifications: constant regions without entry; synthetic humanized antibody light chain variable region sequence; synthetic humanized antibody heavy chain variable region sequence
B6: 84 (antibody, V domains shown)
VL: B1 VL with V48L, P80S
VH: B1 VH with I2V, K46E
modifications: constant regions without entry; synthetic humanized antibody light chain variable region sequence; synthetic humanized antibody heavy chain variable region sequence
B7: 86 (antibody, V domains shown)
VL: B1 VL with V48L, P80S
VH: B1 VH
modifications: constant regions without entry; synthetic humanized antibody light chain variable region sequence; synthetic humanized antibody heavy chain variable region sequence
B8: 85 (antibody, V domains shown)
VL: B1 VL with V48L, P80S
VH: B1 VH with I2V
modifications: constant regions without entry; synthetic humanized antibody light chain variable region sequence; synthetic humanized antibody heavy chain variable region sequence
B9: 89 (antibody, V domains shown)
VL: B1 VL with K45Q, V48L
VH: B1 VH with D62Q, D63G, K65T
modifications: constant regions without entry; synthetic humanized antibody light chain variable region sequence; synthetic humanized antibody heavy chain variable region sequence
B10: 83 (antibody, V domains shown)
VL: B1 VL with V48L, P80S
VH: B1 VH with D62Q, D63G, K65T
modifications: constant regions without entry; synthetic humanized antibody light chain variable region sequence; synthetic humanized antibody heavy chain variable region sequence
B11: 81 (antibody, V domains shown)
VL: B1 VL with V48L, P80S
VH: B1 VH with I2V, K46E, D62Q, D63G, K65T
modifications: constant regions without entry; synthetic humanized antibody light chain variable region sequence; synthetic humanized antibody heavy chain variable region sequence

Columns and labels:
Experiment in all cases: Selectivity ELISA of humanized antibodies for human Eph receptor
Assay type in all cases: binding
Details in all cases: coated protein 1 nM
human EphA3 = target: T1, human EphA3
Summary of the method: (§1)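 Human Eph ECD-SEAP-His fusions, harvested after 5 days of Expi293F expression, are captured on anti-His-coated wells (1 nM final). Bound humanized antibody is detected with HRP anti-IgG and TMB at 450 nm.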

human EphA6 = target: T2, human EphA6
Summary of the method: as §1

human EphA7 = target: T3, human EphA7
Summary of the method: as §1

Molecule | hEphA3-SEAP-: absorbance at 450 nm, percentage with respect to hEphA4-SEAP-His as 100% (human EphA3) [%] | hEphA6-SEAP-: absorbance at 450 nm, percentage with respect to hEphA4-SEAP-His as 100% (human EphA6) [%] | hEphA7-SEAP-: absorbance at 450 nm, percentage with respect to hEphA4-SEAP-His as 100% (human EphA7) [%]
B1 | 5.4 | 9.5 | 5.3
B2 | 6.0 | 7.5 | 6.0
B3 | 5.2 | 7.6 | 4.9
B4 | 5.5 | 6.4 | 5.3
B5 | 5.4 | 8.7 | 5.4
B6 | 4.9 | 6.0 | 4.8
B7 | 5.8 | 8.6 | 5.6
B8 | 5.1 | 6.2 | 4.8
B9 | 5.8 | 8.4 | 5.4
B10 | 5.7 | 7.5 | 5.5
B11 | 5.0 | 8.8 | 5.2
